Molecular target: murine TRIM66 PHD-Bromodomain (a.a. 996-1,185) (mouse) (UniProt Q924W6)
Assay: ITC; 800 uM to 2.4 mM peptide in the syringe injected into 30-50 uM mTRIM66 PHD-Bromodomain in the cell; 25°C; 20 mM Tris pH 7.5, 100 mM NaCl; single-site binding model; triplicate

UniProt Q924W6, sequence (Q924W6 996-1185): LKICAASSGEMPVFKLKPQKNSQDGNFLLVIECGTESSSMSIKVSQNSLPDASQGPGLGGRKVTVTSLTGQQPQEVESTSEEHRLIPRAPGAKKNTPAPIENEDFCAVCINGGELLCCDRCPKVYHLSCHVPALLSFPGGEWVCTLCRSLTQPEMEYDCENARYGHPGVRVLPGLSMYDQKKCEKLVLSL

Kd	fold decrease of the binding affinity against the unmodified H3 tail	fold increase of the binding affinity against H3K4me3 alone	Substance
1.3 µM			H3 (1-30) K9me3+K18Ac (from UniProt P68431 2-31) (peptide)
	7.1 fold	2.4 fold	H3 (1-30) K4me3+K18Ac (from UniProt P68431 2-31) (peptide)
3.4 µM			H3 (1-30) unmodified (from UniProt P68431 2-31) (peptide)
59.5 µM			H3 (1-30) K4me3 (from UniProt P68431 2-31) (peptide)

Source: publication PMC11077763
